Laboratory results taken from US20230357429A1.

Tests used:
Settings in all cases: remark: other sources report otherwise
[1] = target: T1, Human TROP2 ECD (31-274 AA), biotinylated (human), P09758; assay: ELISA, biotinylated TROP2 ECD on neutravidin plate, Fab titrated
T1 chain: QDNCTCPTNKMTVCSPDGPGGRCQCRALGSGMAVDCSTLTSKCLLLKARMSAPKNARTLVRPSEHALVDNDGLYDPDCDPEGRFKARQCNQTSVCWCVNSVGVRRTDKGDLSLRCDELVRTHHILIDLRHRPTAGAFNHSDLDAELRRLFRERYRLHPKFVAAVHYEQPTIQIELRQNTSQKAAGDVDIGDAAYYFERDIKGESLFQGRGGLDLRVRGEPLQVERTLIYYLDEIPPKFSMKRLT

[2] = target: T1, Human TROP2 ECD (31-274 AA), …; assay: ELISA: biotinylated TROP2 captured on neutravidin plate, Fab titrated, HRP secondary antibody
[3] = target: T1, Human TROP2 ECD (31-274 AA), …; assay: ELISA, biotinylated TROP2 ECD on neutravidin plate (BLI cell of the same column: low binding); ELISA: no half-maximal signal up to 1000 nM Fab

Measured: EC50

B1: TBD-4 (anti-TROP2 Fab, LC H91A) (Fab)
light: DIQLTQSPSSLSASVGDRVSITCKASQDVSIAVAWYQQKPGKAPKLLIYSASYRYTGVPDRFSGSGSGTDFTLTISSLQPEDFAVYYCQQAYITPLTFGAGTKVEIKRTVAAPSVFIFPPSDEQLKSGTASVVCLLNNFYPREAKVQWKVDNALQSGNSQESVTEQDSKDSTYSLSSTLTLSKADYEKHKVYACEVTHQGLSSPVTKSFNRGEC
heavy: QVQLQQSGSELKKPGASVKVSCKASGYTFTNYGMNWVKQAPGQGLKWMGWINTYTGEPTYTDDFKGRFAFSLDTSVSTAYLQISSLKADDTAVYFCARGGFGSSYWYFDVWGQGSLVTVSSASTKGPSVFPLAPSSKSTSGGTAALGCLVKDYFPEPVTVSWNSGALTSGVHTFPAVLQSSGLYSLSSVVTVPSSSLGTQTYICNVNHKPSNTKVDKKVEPKSC
modifications: here or on the partner: biotinylated (site not stated)
> 1 µM: all assays above

B2: TBD-5 (anti-TROP2 Fab, LC Y92A) (Fab)
light: DIQLTQSPSSLSASVGDRVSITCKASQDVSIAVAWYQQKPGKAPKLLIYSASYRYTGVPDRFSGSGSGTDFTLTISSLQPEDFAVYYCQQHAITPLTFGAGTKVEIKRTVAAPSVFIFPPSDEQLKSGTASVVCLLNNFYPREAKVQWKVDNALQSGNSQESVTEQDSKDSTYSLSSTLTLSKADYEKHKVYACEVTHQGLSSPVTKSFNRGEC
heavy: QVQLQQSGSELKKPGASVKVSCKASGYTFTNYGMNWVKQAPGQGLKWMGWINTYTGEPTYTDDFKGRFAFSLDTSVSTAYLQISSLKADDTAVYFCARGGFGSSYWYFDVWGQGSLVTVSSASTKGPSVFPLAPSSKSTSGGTAALGCLVKDYFPEPVTVSWNSGALTSGVHTFPAVLQSSGLYSLSSVVTVPSSSLGTQTYICNVNHKPSNTKVDKKVEPKSC
modifications: here or on the partner: biotinylated (site not stated)
> 1 µM: all assays above
